The DeepSol protein solubility set

Experiment: soluble on expression in E. coli; label from the status in PepcDB or PDB records

Sequence	soluble on expression in E. coli
GEINGVSGIFPASSVEVIKQLPQPPPLCRALYNFDLRDKDKSENQDCLTFLKDDVITVISRVDENWAEGKLGDKVGIFPILFVEPNVSARHLLQNKGHQLSRTRHLSLMSSPSRGKATNTSSLRKSPGSRRKGSGQFSMTTALNTLNRTVHSPEGHQMVEISTPMLISSNSPSVLTQHGDKADFPTSSTGQVSSSQPAPASPGHSTAMVSVPSSQQHLSNNMFVALHTYSAHRPEELDLQKGEGIRVLGKYQDGWLKGLSLLTGRTGIFPSDYVIPVFSSTARKTSSFPDSRSPTVCTTWALSTSSVSSQGSFAEGDPRQSGPFKSVFVPTAVVNPSRSTPGPGSSGQGSLRKVRSSMRKNGSLQRPVQSGIPTFMVGSLRCSPTMVIRPQRFQFYPPQGMTPSPTPIMVEMGSKSIYTGEPALTCINRGSKTRIHSAGNSIIMEGKETPIKSEPPPKPPASAPPSILVKPENSKNGTEKQVKTVRFQNYSPPPTKHSASSPTSGKHDHPATLKGSQHEAVSSGGEMTILFAHRSGCHSGQQTDLRRKSAFGKTMPLLSTASATQTLFPSK	soluble
GEQPSIQLTFADQNNSEMSVVHLNQLLKTNHISADKIIEKDGKTTIVFDGEDAQSKARALLNKELNKDDSITFSYVSVAPEWLNEMGFSPIKLGLDLRGGVQFLLNVDVNKAFEEQRDALIDEINASRDQRVRGVQVRAESGNRITVNSDSEQALSEVNKFLRQNYPGWISKSSSRGFVLEPSEQNIQEFQSSTLQQNLKIMRGRIEELGITEALVQRQGKESIRIELPGVQDPAQAKNVIGATASLAFYEVKDASQAHSSQDLVLQDNDGRTVILAKRPVLTGEHIVNARAGVDKMGMSEVNISLDHAGGKKMSDFSATHIGKPMATVYREYKTNDRGVTERSERVISVATIQSQLGSQFRITGAGSMDDAQQLALLLRAGSLTAPVTIVEERTIGASLGAENIEN	not soluble
GESSKSGYQTTGENNSSDYQGIIEDGEYKTSKSRGVGISQNSDNLLNLKSFEAGLTTISKDHFSTKSYIFQEGQYLNKATIQDWLGRKSSSNPEGLNPSDNGKKEANKRNPIYVQQIEEQDYMKQNNGKLELAGMTIGIGMNQKDYYQKEQYGATYSTTISKEKRIEEGKIAAKKVLARVRQKVGNNVPIVIAMFAQAPNDSLVGGYFYSYTVSKSGTDIGSWTETNIKSYVLPATEDNKLPNDNDSTSFDNFQKEVKNFFPNISNVTGQGQYKDKTLQGLHITITTQFYSETEITSFTQYVAQAAKSYLPSGIPVDIKINGSDGETQSFVSTTGGNGGYYTHVFGSY	soluble
GFNYSITGNIATFKNKITELPDNVRSVYGGNGMLDDIIGRPRNSIYGYVADGIFKTQEEVDNSPQQAGKGLGRIRYKDLDGDGRITQDYDRTWIGVSDPDFTYGLNLQASYKNVDLALFFQGVHGGDVWDSWIEYSDFWNIQDVNNTNHLKGVFNAWSPQNPDSNIPALSTRNTNDEKRTSTYFLKDGSYLKLRTIELGYTFPESMVKKAMISRLRAYVSANNVFTIKKWWDSNRFSGPDPEIRDFGYVIPFTATVGVNITF	not soluble
GFRWASNATFTLNRNKVKRLAGGSTNPVTGELIDMPNMPVGWLGKENVAPRVILTEGGTMTDIYVYNELTKDNNGNIKVDAQTGGLSMHTAETPTKVGNLNANYNLGWTNNFTYKGINLGVVLSARVGGLAYSATQGVLDYYGVSSITANARDNKGVPMNNGKVDTQKYYQTIGTGEGGYGRYYLYSATNVRLQELSLSYTLPKKWLNNVANVTFGLVGRNLWMIYCKAPFDPELSASTSSNYYMNVDYFMQPSMRNIGFNVKVQF	not soluble
GGSEDEDSPLDALDLVWAKCRGYPSYPALIIDPKMPREGMFHHGVPIPVPPLEVLKLGEQMTQEAREHLYLVLFFDNKRTWQWLPRTKLVPLGVNQDLDKEKMLEGRKSNIRKSVQIAYHRALQHRSKVQGE	soluble
GHFAPQQMKEAIEIYKTLFEPSDVLDEPYVIVCLNTIVAENDDEAQYLASSMAQVMVSITRGRMQPVQPPTHDLQNILTPREYAMAMERQKISLIGSENTVQQKIQDFMETYGEVNEIMAISYIYDKDMQLDSYRRFKN	not soluble
GHHHHHHAIAENLYFQSETSETDSTGNTQTCETRQTRSNSWTAWGIHAISTITDGAKQLYTKALGLDELEEKKLEDEEGVTHVEVDEKTKRDLWNQLSTLVGADVINMRLSLPVWLFEPTTALQRMCETLQFHQLLDMAATCEEPVERDALVAAFTVSAFAHTERVYKPFNPVLGETFEWTSRDGTTRVLCEQVSHHPPVSVSYTEGPGWVAQEVFSCNAYFLGNSVEIRNTGSRYVYLTSFDERYEWTLPVSAAQNLFVGGSFIDHYGELILRSSPRGSVTSLTFTKCGWFGRGRYAVNGDIVDADGYRVMELSGEWNRGLVGFRLDKSSGERVDAKSLWYAGEHKPAVKRDKYNFTNFTYELLEVPDNAESIIPPTDSRFRPDRRALEGNNLSLANLEKVRVENIQRERENQRQKTGTTYVPAWFYQDDNNEWHFGGKYWKETRNMSEDQKEQMKLW	not soluble
GHHHHHHAIAENLYFQSQQVKQKHKKSDEYRVFVGNLPFSWLEDAVRSVFHSYGTVVDVEVPRKREQPERNRGFAFVYFSSREEALAATTLSGSRLDGRIIKVEWADDGSEHRKVGHEELTQRPTHPLASSQVYEWGGQQVQKQNDSVVSKETPNFMPSGALYKEQRMTRYGKELKFVEPLDARKPEQPWRMYVFKNGKLLEGEEGVFYIHQKSNYLFGRDRDVVDIPIDHPSASKQHAVLQFRQVMPKNGNKLVIKPYIMDLESTNGTFLNNERIESLRYYELLEKDLLRFGHSSREFILLTGHK	soluble
GHHHHHHEAIAKRLDACQDQLLELYEENSIDIHKHIMHWKCIRLESVLLHKAKQMGLSHIGLQVVPPLTVSETKGHNAIEMQMHLESLAKTQYGVEPWTLQDTSYEMWLTPPKRCFKKQGNTVEVKFDGCEDNVMEYVVWTHIYLQDNDSWVKVTSSVDAKGIYYTCGQFKTYYVNFNKEAQKYGSTNHWEVCYGSTVICSPASVSSKKKK	soluble
GHHHHHHHHHHSSGHIEGRHMKRMIALDGAQGEGGGQILRSALSLSMITGQPFTITSIRAGRAKPGLLRQHLTAVKAATEICGATVEGAELGSQRLLFRPGTVRGGDYRFAIGSAGSCTLVLQTVLPALWFADGPSRVEVSGGTDNPSAPPADFIRRVLEPLLAKIGIHQQTTLLRHGFYPAGGGVVATEVSPVASFNTLQLGERGNIVQMRGEVLLAGVPRHVAEREIATLAGSFSLHEQNIHNLPRDQGPGNTVSLEVESENITERFFVVGEKRVSAEVVAAQLVKEVKRYLASTAAVGEYLADQLVLPMALAGAGEFTVAHPSCHLLTNIAVVERFLPVRFSLIETDGVTRVSIE	soluble
GHMIMANWQSIDELQDIASDLPRFIHALDELSRRLGLNITPLTADHISLRCHQNATAERWRRGFEQCGELLSENMINGRPICLFKLHEPVQVAHWQFSIVELPWPGEKRYPHEGWEHIEIVLPGDPETLNARALALLSDEGLSLPGISVKTSSPKGEHERLPNPTLAVTDGKTTIKFHPWSIEEIVASEQSA	soluble
GIDPFTMLHIEFITDLGAKVTVDVESADKLLDVQRQYGRLGWTSGEVPVGGYQFPLENEPDFDWSLIGARKWTNPEGEEMILHRGHAYRRRELEAVDSRKMKLPAAVKYSRGAKNTDPEHVREKADGEFEYVTLAIFRGGKRQERYAVPGSNRPQAGAPARSAATRAQGARPGAVAVQDEETPF	soluble
GIPKCPEDWGASSRTSLCFKLYAKGKHEKKTWFESRDFCRALGGDLASINNKEEQQTIWRLITASGSYHKLFWLGLTYGSPSEGFTWSDGSPVSYENWAYGEPNNYQNVEYCGELKGDPTMSWNDINCEHLNNWICQIQKGQTPKPD	soluble
GIQVRDCMIPRNEMIACELQTDIEVLKTTFIDTGLSKIIIYRQNIDDVVGYIHSSEMFRGQDWQKRINTTVFVPESMYANKLMRLLMQRKKSIAIVIDELGGTAGMVTLEDLVEEIFGDIEDEH	not soluble
GIVATRYRDFSPLLEALTQLLFYVTPIVWTTETLYSQGGAVSERAKLAMLNPLYHYMEVIRAPLIGAPIHP	not soluble
GKKQEPFEQVTIDIEEQHQGSVMEALGIRKGEVKDMIPDGKGRTRLEYVIPSRGLIGFRNEFMTMTSGTGLLYSSFSHYDDVKLGEIGQRKNGVLISNATGKALAYALFGLQERGKLMIEHGVDVYEGQI	not soluble
GKTMKMRKFTIADASLERSPGQEADISVGNLVDERHGGPITIGYGRYAPGQSLTETMAVDDVMIVLEGRLSVSTDGETVTAGPGEIVYMPKGETVTIRSHEEGALTAYVTYPHWRPAHA	soluble
GKVLDAIIQEKKSGRIPGIYGRLGDLGAIDEKYDIAISSCCHALDYIVVDSIDTAQECVNFLKKHNIGIATFIGLDKMTVWAKKMSKIQTPENTPRLFDLVKVKNEEIRQAFYFALRDTLVANNLDQATRVAYQRDRRWRVVTLQGQIIEQSGTMSGGLEHHHHHH	soluble
GLDALFERAVESVAAGLNTEYSKVLEYRPADNKFLLRAGVGWQSGLVGEAAVGAGEESQAGYTLQTEEPVVVEDLRTESRFSGPSLLLDHGVVSGISVIIGTTTEPWGVLGAHTSERRPFTKDDITFVRGVANTLTNAIEREQLEGTLRQAEQRYKTLLENFP	not soluble
GLDTLDRDGDGSTADADCNDFAPTIHPGAAEATLDGVDSNCDGRDSGVAEVVETFKNPGTYSSPVINFKIASPPGPGTPIYGPPRDFSGYNKSYSLAIGKTSYYDPTTGTKWNDDTITPVSDGQDIWRGWTHTGKWSFFNGKAGDKITLSVQRDAQEASLKGAHPGFILFWRPEGGPLFWAGTQDLDEGQTALPADSDTVIGHVIVQHADWTLQGLPPKADHTAPAGVDTELYPMKPDSYTMYYVDSGYDADKYVASKKLIMHPTAFKGLALNDGTAGAFTKSITLPKTGYYMLYVANVLEVDDWSVDADGKLTTTGEVWEVPAKGCWVNITISKP	soluble
GLGEKKEGHFSALPSLPVGSHAKVSSPQPRGPRYAEGTFISDYSIAMDKIHQQDFVNWLLAQKGKKNDWKHNITQREARALELASQANRKEEEAVEPQSSPAKNPSDEDLLRDLLIQELLACLLDQTNLCRLRSR	soluble
GLNMYVAGKATLNYLFERYMDTKYNLRENTKVNYKYMYDNYVRNTIGKRLIADIKYSDIVYFYKSLITEKGLELNTVDTIHTVIHPVFSMAVRDDVIRKNPASGVLADIKKESGKNKGIRHALTIEQQRVFMKYMIEEEQFNHWIPIFTILLGTGCRVGEFIGLRWEDVDFKQKVISINHSIAYVCYGKEDGRKSHYAISLPKTEAGIRYIPMTDEVYDVFKAEYYRQQENGFSQFSIEGMSGFIFTNRCGRIYNQQTLNKGLKRISENYNQKELIDA	not soluble
GLVAHSDLDERAIEALKEFNEDGALAVLQQFKDSDLSHVQNKSAFLCGVMKTYRQREKQGTKVADSSKGPDEAKIKALLERTGYTLDVTTGQRKYGGPPPDSVYSGQQPSVGTEIFVGKIPRDLFEDELVPLFEKAGPIWDLRLMMDPLTGLNRGYAFVTFCTKEAAQEAVKLYNNHEIRSGKHIGVCISVANNRLFVGSIPKSKTKEQILEEFSKVTEGLTDVILYHQPDDKKKNRGFCFLEYEDHKTAAQARRRLMSGKVKVWGNVGTVEWADPIEDPDPEVMAKVKVLFVRNLANTVTEEILEKAFSQFGKLERVKKLKDYAFIHFDERDGAVKAMEEMNGKDLEGENIEIVFAKPPDQKRKERKAQRQAAKNQMYDDYYYYGPPHMPPPTRGRGRGGRGGYGYPPDYYGYEDYYDYYGYDYHNYRGGYEDPYYGYEDFQVGARGRGGRGARGAAPSRGRGAAPPRGRAGYSQRGGPGSARGVRGARGGAQQQRGRGQGKGVEAGPDLLQ	soluble
